Assay results published in PMC4002122 (Chemical Research in Toxicology, 2014).

Columns and labels:
[1] = biological target: T1, UGT1A9 (Homo sapiens, UniProt O60656); details: cited from earlier work; for Km: affinity of UGT1A9 for tRes and natural analogs
T1 sequence (O60656 26-530): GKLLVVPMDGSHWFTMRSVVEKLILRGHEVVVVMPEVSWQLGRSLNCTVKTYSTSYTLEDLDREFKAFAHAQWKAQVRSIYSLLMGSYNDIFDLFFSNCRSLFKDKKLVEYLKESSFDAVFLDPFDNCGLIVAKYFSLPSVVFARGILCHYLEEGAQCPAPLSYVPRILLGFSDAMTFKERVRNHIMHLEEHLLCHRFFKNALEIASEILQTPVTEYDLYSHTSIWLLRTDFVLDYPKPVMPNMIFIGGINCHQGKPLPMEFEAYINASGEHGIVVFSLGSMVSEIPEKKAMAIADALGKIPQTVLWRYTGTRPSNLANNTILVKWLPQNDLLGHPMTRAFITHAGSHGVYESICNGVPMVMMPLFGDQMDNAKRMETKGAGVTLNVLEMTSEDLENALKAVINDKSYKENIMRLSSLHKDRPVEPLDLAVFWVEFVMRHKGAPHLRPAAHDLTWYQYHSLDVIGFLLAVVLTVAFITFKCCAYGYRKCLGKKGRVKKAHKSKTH

[2] = biological target: T2, UGT1A1 (Homo sapiens, UniProt P22309); details: tRes-3-O-glucuronidation; cited from earlier work
T2 sequence (P22309 26-533): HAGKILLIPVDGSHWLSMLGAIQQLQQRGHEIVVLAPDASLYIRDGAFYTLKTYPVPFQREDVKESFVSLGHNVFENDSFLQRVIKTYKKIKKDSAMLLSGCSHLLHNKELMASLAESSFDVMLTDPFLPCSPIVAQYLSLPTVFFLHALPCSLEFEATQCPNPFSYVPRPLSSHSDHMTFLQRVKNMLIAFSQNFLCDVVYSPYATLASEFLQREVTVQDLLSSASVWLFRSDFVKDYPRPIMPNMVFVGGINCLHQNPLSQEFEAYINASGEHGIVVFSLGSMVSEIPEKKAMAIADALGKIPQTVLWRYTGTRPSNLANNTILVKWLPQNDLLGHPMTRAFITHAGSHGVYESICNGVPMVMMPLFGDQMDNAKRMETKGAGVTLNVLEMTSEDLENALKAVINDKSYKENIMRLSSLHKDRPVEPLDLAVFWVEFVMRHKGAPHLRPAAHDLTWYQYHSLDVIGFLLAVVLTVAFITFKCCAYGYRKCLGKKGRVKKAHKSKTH

[3] = substrate: COc1ccc(/C=C(/C(=O)O)c2cc(OC)c(OC)c(OC)c2)cc1O; assay: Steady state kinetics of glucuronidation by recombinant UGT1A10; format: in vitro ADME, human; details: other: NI-12a-O-gluc formation; UDP-GlcUA 3 mM, 60 min, 37 °C
[4] = substrate: COc1ccc(C=Cc2cc(OC)cc(OC)c2/C=N/O)cc1; assay: as above; format: in vitro ADME, human; details: other: NI-ST-05–N–O-gluc formation; Hill equation (S50)
[5] = substrate: COc1ccc(/C=C(/C(=O)O)c2cc(OC)c(OC)c(OC)c2)cc1O; assay: Steady state kinetics of glucuronidation by recombinant UGT1A8; format: in vitro ADME, human; details: other: NI-12a-O-gluc formation, UDP-GlcUA 3 mM, 60 min, 37 °C
[6] = substrate: COc1ccc(/C=C(/C(=O)O)c2cc(OC)c(OC)c(OC)c2)cc1O; assay: Steady state kinetics of glucuronidation by recombinant UGT1A9; format: in vitro ADME, human; details: other: NI-12a-O-gluc formation, UDP-GlcUA 3 mM, 60 min, 37 °C
[7] = substrate: COc1ccc(/C=C(/C(=O)O)c2cc(OC)c(OC)c(OC)c2)cc1O; assay: Steady state kinetics of glucuronidation by recombinant UGT1A7; format: in vitro ADME, human; details: other: NI-12a-O-gluc formation, UDP-GlcUA 3 mM, 60 min, 37 °C
[8] = substrate: COc1ccc(C=Cc2cc(OC)cc(OC)c2/C=N/O)cc1; assay: Steady state kinetics of glucuronidation by recombinant UGT1A1; format: in vitro ADME, human; details: other: NI-ST-05–N–O-gluc formation; estimated based on an incomplete data set

trans-arachidin-1 [tA1]
Km [1]: 190 µM

CC(C)/C=C/c1c(O)cc(/C=C/c2ccc(O)cc2)cc1O [tA3]
Km [1]: 21 µM

Oc1ccc(/C=C/c2cc(O)cc(O)c2)cc1 [tRes, trans-3,5,4′-trihydroxystilbene]
Vmax [2]: 31 nmol/mg/min | Km [1]: 2.5 µM | Vmax ([1]; tRes-3-O-glucuronide formation): 2.5 nmol/mg/min

B1: UGT1A10 (Homo sapiens) (protein)
chain: GKLLVVPMDGSHWFTMQSVVEKLILRGHEVVVVMPEVSWQLERSLNCTVKTYSTSYTLEDQNREFMVFAHAQWKAQAQSIFSLLMSSSSGFLDLFFSHCRSLFNDRKLVEYLKESSFDAVFLDPFDTCGLIVAKYFSLPSVVFTRGIFCHHLEEGAQCPAPLSYVPNDLLGFSDAMTFKERVWNHIVHLEDHLFCQYLFRNALEIASEILQTPVTAYDLYSHTSIWLLRTDFVLDYPKPVMPNMIFIGGINCHQGKPLPMEFEAYINASGEHGIVVFSLGSMVSEIPEKKAMAIADALGKIPQTVLWRYTGTRPSNLANNTILVKWLPQNDLLGHPMTRAFITHAGSHGVYESICNGVPMVMMPLFGDQMDNAKRMETKGAGVTLNVLEMTSEDLENALKAVINDKSYKENIMRLSSLHKDRPVEPLDLAVFWVEFVMRHKGAPHLRPAAHDLTWYQYHSLDVIGFLLAVVLTVAFITFKCCAYGYRKCLGKKGRVKKAHKSKTH
Km [3]: 500 ± 75 µM | Vmax [3]: 3.5 ± 0.24 nmol/mg/min | Vmax/Km [3]: 7 µL/min/mg | K0.5 [4]: 6.2 ± 0.35 µM | Vmax [4]: 0.00065 µmol/min/mg | Vmax/Km [4]: 105 µL/min/mg

B2: UGT1A8 (Homo sapiens) (protein)
chain: GKLLVVPMDGSHWFTMQSVVEKLILRGHEVVVVMPEVSWQLGKSLNCTVKTYSTSYTLEDLDREFMDFADAQWKAQVRSLFSLFLSSSNGFFNLFFSHCRSLFNDRKLVEYLKESSFDAVFLDPFDACGLIVAKYFSLPSVVFARGIACHYLEEGAQCPAPLSYVPRILLGFSDAMTFKERVRNHIMHLEEHLFCQYFSKNALEIASEILQTPVTAYDLYSHTSIWLLRTDFVLDYPKPVMPNMIFIGGINCHQGKPLPMEFEAYINASGEHGIVVFSLGSMVSEIPEKKAMAIADALGKIPQTVLWRYTGTRPSNLANNTILVKWLPQNDLLGHPMTRAFITHAGSHGVYESICNGVPMVMMPLFGDQMDNAKRMETKGAGVTLNVLEMTSEDLENALKAVINDKSYKENIMRLSSLHKDRPVEPLDLAVFWVEFVMRHKGAPHLRPAAHDLTWYQYHSLDVIGFLLAVVLTVAFITFKCCAYGYRKCLGKKGRVKKAHKSKTH
Km [5]: 240 ± 76 µM | Vmax [5]: 6.0 ± 1.3 nmol/mg/min | Vmax/Km [5]: 25 µL/min/mg

B3: UGT1A9 (Homo sapiens) (protein)
chain: T1 sequence (O60656 26-530)
Km [6]: 240 ± 40 µM | Vmax [6]: 0.0083 µmol/min/mg | Vmax/Km [6]: 35 µL/min/mg

B4: UGT1A7 (Homo sapiens) (protein)
chain: GKLLVVPMDGSHWFTMQSVVEKLILRGHEVVVVMPEVSWQLGRSLNCTVKTYSTSYTLEDQDREFMVFADARWTAPLRSAFSLLTSSSNGIFDLFFSNCRSLFNDRKLVEYLKESCFDAVFLDPFDACGLIVAKYFSLPSVVFARGIFCHYLEEGAQCPAPLSYVPRLLLGFSDAMTFKERVWNHIMHLEEHLFCPYFFKNVLEIASEILQTPVTAYDLYSHTSIWLLRTDFVLEYPKPVMPNMIFIGGINCHQGKPVPMEFEAYINASGEHGIVVFSLGSMVSEIPEKKAMAIADALGKIPQTVLWRYTGTRPSNLANNTILVKWLPQNDLLGHPMTRAFITHAGSHGVYESICNGVPMVMMPLFGDQMDNAKRMETKGAGVTLNVLEMTSEDLENALKAVINDKSYKENIMRLSSLHKDRPVEPLDLAVFWVEFVMRHKGAPHLRPAAHDLTWYQYHSLDVIGFLLAVVLTVAFITFKCCAYGYRKCLGKKGRVKKAHKSKTH
Km [7]: 62 ± 43 µM | Vmax [7]: 2.2 ± 0.77 nmol/mg/min | Vmax/Km [7]: 35 µL/min/mg

B5: UGT1A1 (Homo sapiens) (protein)
chain: T2 sequence (P22309 26-533)
Vmax [8]: 0.00021 ± 2e-05 µmol/min/mg
